{"source": "patent US8124835B2", "about": "“Acyl-coa-dependent diacylglycerol acyltransferas 1 (DGAT1) gene from Tropaeolum majus, protein encoded thereby and uses thereof” (National Research Council of Canada, priority 2006, dated 2012)", "system": "B. napus HEAR breeding line 2026", "assay": "Over-expression of TmDGAT1 in B. napus HEAR breeding line 2026", "format": "in vivo, Brassica napus", "source_text": "FIG. 12. Over expression of the TmDGAT1 in B. napus High erucic acid rapeseed breeding line 2026 (courtesy of Dr. P. B. E. McVetty, University of Manitoba). Effect of transformation of B. napus with the TmDGAT1 cDNA under control of the napin promoter on (A) oil content (as percentage of mature seed dry weight), (B) Total oil/100 seeds, (C) Relative net oil content (with the control average set at 100%). T1 seeds of B. napus plasmid-only control transgenic lines (napin:pSE; black bar) and napin:TmDGAT1 transgenic lines (hatched bars) are shown ±SE.\nThe final binary vector (napin/DGAT/nos) was verified and electroporated into Agrobacterium tumefaciens cells strain GV3101 containing helper plasmid pMP90 (Koncz and Schell, 1986). Plasmid integrity was verified by DNA sequencing following its re-isolation from A. tumefaciens and transformation into E. coli.\nArabidopsis thaliana (ecotype Columbia) WT and mutant line AS11 (Katavic et al., 1995; Zou et al, 1999) were transformed by a vacuum infiltration method (Clough and Bent, 1998). B. napus HEAR breeding line 2026 (courtesy of Dr. P. B. E. McVetty, University of Manitoba) was transformed utilizing hypocotyl explants and a modified method of DeBlock et al., 1998. Modifications of the hypocotyl explant transformation method were described previously (Zou et al., 1997).\nTotal lipid extracts (TLEs) were prepared as described above, and lipid class analyses, determination of oil content and composition in all seed lines from WT and the AS11 transgenic plants and in nasturtium seed were performed as described previously (Taylor et al., 1991; 1992 a & b; Zou et al., 1997; Jako et al., 2001). In all cases, the data represent the averages of three to five determinations. Intact-seed transmethylation followed by gas chromatography (GC) analysis provided equally reproducible analyses of Arabidopsis seed oil as reported by Li et al., (2006). […]"}
{"molecule": "TmDGAT1: Tropaeolum majus acyl-CoA-dependent diacylglycerol acyltransferase 1, 518 amino acids (SEQ ID NO: 3), encoded by ORF SEQ ID NO: 2 (protein, listed as Tropaeolum majus) MAVAESSQNTTTMSGHGDSDLNNFRRRKPSSSVIEPSSSGFTSTNGVPATGHVAENRDQDRVGAMENATGSVNLIGNGGGVVIGNEEKQVGETDIRFTYRPSFPAHRRVRESPLSSDAIFKQSHAGLFNLCIVVLIAVNSRLIIENLMKYGWLIDTGFWFSSRSLGDWSIFMCCLTLPIFPLAAFIVEKLVQRNHISELVAVLLHVIVSTAAVLYPVIVILTCDSVYMSGVVLMLFGCIMWLKLVSYAHTSSDIRTLAKSGYKGDAHPNSTIVSCSYDVSLKSLAYFMVAPTLCYQPSYPRSSCIRKGWVVRQFVKLIVFIGLMGFIIEQYINPIVRNSKHPLKGDFLYAIERVLKLSVPNLYVWLCMFYSFFHLWLNILAELLRFGDREFYKDWWNAKTVAEYWKMWNMPVHRWMVRHLYFPCLRNGIPKEGAIIIAFLVSGAFHELCIAVPCHVFKLWAFIGIMFQVPLVLITNYLQEKFSNSMVGNMIFWFIFCILGQPMCVLLYYHDLINLKEK", "values": [{"measurement": "oil content increase", "setting": "T1 generation compared to average pSE plasmid-only control lines", "value": "3.5-4.5%"}, {"measurement": "increase in oil content on a per 100-seed basis", "setting": "T1 seeds", "value": "20 to 30", "unit": "mg"}, {"measurement": "net overall oil increase", "setting": "T1 seeds compared with average of pSE controls", "value": "≤ 15", "unit": "%"}]}
